The target in this experiment is T1, ATM, phosphorylated (activated) (human, UniProt Q13315 2-3056, phosphorylated (activated state; site not given)).
T1 construct: Endogenous protein co-immunoprecipitated from PSC27 cell lysates; also called p-ATM
Kind of experiment: IP with p-TAK1 antibody from lysates of bleomycin-treated PSC27 cells, Western blot (FIG. 2). (In general: In western blotting, separated proteins are transferred to a membrane and probed.)

T1 sequence (Q13315 2-3056 limits assumed): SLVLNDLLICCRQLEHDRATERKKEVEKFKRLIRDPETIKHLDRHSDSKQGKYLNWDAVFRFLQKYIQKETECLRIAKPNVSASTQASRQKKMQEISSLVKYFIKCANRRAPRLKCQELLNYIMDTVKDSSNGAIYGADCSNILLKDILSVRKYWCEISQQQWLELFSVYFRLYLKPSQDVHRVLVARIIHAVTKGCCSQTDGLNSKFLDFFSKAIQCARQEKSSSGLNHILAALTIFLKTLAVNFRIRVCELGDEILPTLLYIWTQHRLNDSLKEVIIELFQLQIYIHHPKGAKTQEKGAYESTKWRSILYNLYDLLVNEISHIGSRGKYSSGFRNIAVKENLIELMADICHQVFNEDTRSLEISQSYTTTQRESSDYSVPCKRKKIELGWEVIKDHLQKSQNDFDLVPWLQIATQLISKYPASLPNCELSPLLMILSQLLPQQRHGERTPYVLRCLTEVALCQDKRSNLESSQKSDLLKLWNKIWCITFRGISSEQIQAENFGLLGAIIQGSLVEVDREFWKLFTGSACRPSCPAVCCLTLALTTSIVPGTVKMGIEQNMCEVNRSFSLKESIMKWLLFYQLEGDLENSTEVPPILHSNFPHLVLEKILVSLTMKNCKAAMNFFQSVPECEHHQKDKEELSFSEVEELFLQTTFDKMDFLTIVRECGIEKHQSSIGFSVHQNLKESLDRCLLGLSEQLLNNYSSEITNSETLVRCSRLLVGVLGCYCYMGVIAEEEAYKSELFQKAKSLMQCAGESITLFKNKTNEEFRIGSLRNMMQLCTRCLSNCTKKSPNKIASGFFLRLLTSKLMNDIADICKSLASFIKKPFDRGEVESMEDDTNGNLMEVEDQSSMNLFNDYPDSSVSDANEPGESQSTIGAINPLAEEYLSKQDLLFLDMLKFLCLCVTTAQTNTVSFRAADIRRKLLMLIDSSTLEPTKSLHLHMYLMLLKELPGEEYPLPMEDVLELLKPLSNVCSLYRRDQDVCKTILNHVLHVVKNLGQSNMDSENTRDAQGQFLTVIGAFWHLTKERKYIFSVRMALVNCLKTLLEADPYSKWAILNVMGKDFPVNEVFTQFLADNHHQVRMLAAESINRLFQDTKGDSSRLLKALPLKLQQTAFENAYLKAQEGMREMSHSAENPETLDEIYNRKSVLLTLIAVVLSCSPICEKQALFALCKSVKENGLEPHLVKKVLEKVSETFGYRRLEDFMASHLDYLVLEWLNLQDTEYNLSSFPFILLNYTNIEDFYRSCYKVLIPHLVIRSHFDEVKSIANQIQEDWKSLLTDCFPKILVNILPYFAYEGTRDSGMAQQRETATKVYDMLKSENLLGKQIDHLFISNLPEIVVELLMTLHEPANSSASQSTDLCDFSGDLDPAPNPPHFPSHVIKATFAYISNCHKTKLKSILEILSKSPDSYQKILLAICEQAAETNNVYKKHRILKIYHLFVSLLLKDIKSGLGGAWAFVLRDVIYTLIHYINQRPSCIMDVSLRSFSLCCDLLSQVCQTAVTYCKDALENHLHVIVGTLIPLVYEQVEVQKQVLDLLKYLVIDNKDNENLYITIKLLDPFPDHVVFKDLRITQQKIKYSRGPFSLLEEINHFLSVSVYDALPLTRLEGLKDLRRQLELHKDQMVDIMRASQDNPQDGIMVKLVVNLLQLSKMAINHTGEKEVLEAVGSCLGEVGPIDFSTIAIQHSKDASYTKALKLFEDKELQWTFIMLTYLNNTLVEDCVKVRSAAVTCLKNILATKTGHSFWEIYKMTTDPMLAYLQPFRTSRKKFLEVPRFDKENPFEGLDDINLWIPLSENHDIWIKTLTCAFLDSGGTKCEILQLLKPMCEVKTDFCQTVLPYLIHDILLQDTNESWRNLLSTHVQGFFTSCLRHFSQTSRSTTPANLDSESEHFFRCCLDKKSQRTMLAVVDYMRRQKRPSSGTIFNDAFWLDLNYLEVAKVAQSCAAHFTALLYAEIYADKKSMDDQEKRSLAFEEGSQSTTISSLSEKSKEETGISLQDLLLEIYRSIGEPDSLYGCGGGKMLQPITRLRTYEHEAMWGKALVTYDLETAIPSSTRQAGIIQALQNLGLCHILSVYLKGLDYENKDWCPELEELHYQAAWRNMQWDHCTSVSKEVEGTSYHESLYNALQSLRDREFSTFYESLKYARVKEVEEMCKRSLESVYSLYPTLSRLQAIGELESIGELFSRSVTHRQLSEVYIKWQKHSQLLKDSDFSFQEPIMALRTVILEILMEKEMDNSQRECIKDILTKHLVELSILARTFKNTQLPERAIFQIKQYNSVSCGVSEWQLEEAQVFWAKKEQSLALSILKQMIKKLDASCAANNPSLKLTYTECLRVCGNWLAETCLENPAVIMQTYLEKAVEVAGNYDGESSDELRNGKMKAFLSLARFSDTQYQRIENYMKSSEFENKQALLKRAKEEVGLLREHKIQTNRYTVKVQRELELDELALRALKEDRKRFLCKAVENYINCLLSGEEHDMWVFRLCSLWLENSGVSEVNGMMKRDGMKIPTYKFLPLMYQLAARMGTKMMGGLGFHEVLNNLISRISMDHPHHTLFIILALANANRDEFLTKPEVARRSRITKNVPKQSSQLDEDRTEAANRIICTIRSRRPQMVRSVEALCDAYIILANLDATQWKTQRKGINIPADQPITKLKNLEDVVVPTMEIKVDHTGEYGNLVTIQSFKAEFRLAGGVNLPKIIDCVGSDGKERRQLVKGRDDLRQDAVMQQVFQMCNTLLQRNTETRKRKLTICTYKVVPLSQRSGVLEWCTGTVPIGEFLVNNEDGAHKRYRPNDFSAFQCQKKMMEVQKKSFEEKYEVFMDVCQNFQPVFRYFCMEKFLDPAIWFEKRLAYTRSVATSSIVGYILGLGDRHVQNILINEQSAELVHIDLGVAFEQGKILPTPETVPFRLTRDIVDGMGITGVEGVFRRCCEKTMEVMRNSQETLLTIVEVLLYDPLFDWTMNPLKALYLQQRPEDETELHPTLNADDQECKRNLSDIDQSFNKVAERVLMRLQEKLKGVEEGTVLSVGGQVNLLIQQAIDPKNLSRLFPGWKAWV

B1: Transforming growth factor kinase 1 (TAK1), phosphorylated (activated) (enzyme, human, UniProt O43318 1-606, looked up)
chain: MSTASAASSSSSSSAGEMIEAPSQVLNFEEIDYKEIEVEEVVGRGAFGVVCKAKWRAKDVAIKQIESESERKAFIVELRQLSRVNHPNIVKLYGACLNPVCLVMEYAEGGSLYNVLHGAEPLPYYTAAHAMSWCLQCSQGVAYLHSMQPKALIHRDLKPPNLLLVAGGTVLKICDFGTACDIQTHMTNNKGSAAWMAPEVFEGSNYSEKCDVFSWGIILWEVITRRKPFDEIGGPAFRIMWAVHNGTRPPLIKNLPKPIESLMTRCWSKDPSQRPSMEEIVKIMTHLMRYFPGADEPLQYPCQYSDEGQSNSATSTGSFMDIASTNTSNKSDTNMEQVPATNDTIKRLESKLLKNQAKQQSESGRLSLGASRGSSVESLPPTSEGKRMSADMSEIEARIAATTAYSKPKRGHRKTASFGNILDVPEIVISGNGQPRRRSIQDLTVTGTEPGQVSSRSSSPSVRMITTSGPTSEKPTRSHPWTPDDSTDTNGSDNSIPMAYLTLDHQLQPLAPCPNSKESMAVFEQHCKMAQEYMKVQTEIALLLQRKQELVAELDQDEKDQQNTSRLVQEHKKLLDENKSLSTYYQQCKKQLEVIRSQQQKRQGTS
modifications: phosphorylated (activated state; site not given)
notes: Endogenous protein immunoprecipitated with a p-TAK1 antibody from PSC27 cell lysates; also called p-TAK1
For B1, the binding result is on record as “no binding”.

Values taken from patent publication US20210030836A1 (SHANGHAI INSTITUTE OF NUTRITION AND HEALTH CHINESE ACADEMY …, published 2021).
